The test concerns the target ArPEC25-mCherry (Ascochyta rabiei). Kind of test: FRET or BRET.

The substance CaβLIM1a-GFP (natural protein) came in with an FRET efficiency of 2.75.

For the origin of these results see article doi:10.1101/2021.09.02.458738.
